Source: US20200317768A1 (published 2020)

T1: cynomolgus monkey FcγRIIa3 extracellular domain with C-terminal His-tag (cynomolgus monkey)
T1 construct: also called cyno FcgRIIa3; cynoFcγRIIa3
T1 chain: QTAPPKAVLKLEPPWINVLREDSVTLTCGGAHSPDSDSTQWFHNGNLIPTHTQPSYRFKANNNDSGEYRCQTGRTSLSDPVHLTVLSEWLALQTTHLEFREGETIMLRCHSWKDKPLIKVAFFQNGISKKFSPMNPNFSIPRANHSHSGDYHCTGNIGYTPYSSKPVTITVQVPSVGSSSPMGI


Legend:
[1] = target: T1, cynomolgus monkey FcγRIIa3 …; test: SPR (BIACORE), antibody captured, FcgR analyte
[2] = target: T2, human FcγRIIIaV extracellular domain with C-terminal His-tag (human, UniProt P08637 17-208); test: SPR (BIACORE), antibody captured, FcgR analyte
T2 construct: also called human FcgRIIIaV
T2 sequence (P08637 17-208 F176V): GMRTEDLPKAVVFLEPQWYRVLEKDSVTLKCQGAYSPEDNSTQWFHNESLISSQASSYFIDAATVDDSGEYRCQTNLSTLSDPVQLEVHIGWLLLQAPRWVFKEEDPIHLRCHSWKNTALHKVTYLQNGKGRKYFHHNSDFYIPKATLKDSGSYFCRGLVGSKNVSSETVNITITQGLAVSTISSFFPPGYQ

| Binder | Kd [1] [µM] | Kd [2] [µM] |
| --- | --- | --- |
| M103205H795-MY520/M103202L889-SK1 (antibody, human IgG1, kappa, Substitutions introduced into M103205H795-SG1, expressed with M103202L889-SK1 as light chain; EU numbering) heavy: QVTLKESGPVLVKPTETLTLTCTVSGIDLSHDDISWVRQAPGKGLEWVGIISYAGSTYYASWAKGRLTISKDTSKNQVVLTMTNMDPVDTATYYCARGVPAYSHGGDLWGQGTLVTVSSASTKGPSVFPLAPSSKSTSGGTAALGCLVKDYFPEPVTVSWNSGALTSGVHTFPAVLQSSGLYSLSSVVTVPSSSLGTQTYICNVNHKPSNTKVDKKVEPKSCDKTHTCPPCPADELLTGPVVFLFPPKPKDTLMISRTPEVTCVVVDVSDEDPEVKFNWYVDGVEVHNAKTKPREELYNSTYRVVSVLTVLHQDWLNGKEYKCKVSNKALPKPIEKTISKAKGQPREPQVYTLPPSREEMTKNQVSLTCLVKGFYPSDIAVEWESNGQPENNYKTTPPVLDSDGSFFLYSKLTVDKSRWQQGNVFSCSVMHEALHNHYTQKSLSLSP light: DIVMTQSPATLSLSPGERATLSCTSSQSVYHANWLSWFQQKPGQPPKLLIYWASTLAYGVPSRFSGSGSGTDFTLTISSLQPEDAATYYCAGGYGGGRYAFGQGTKVEIKRTVAAPSVFIFPPSDEQLKSGTASVVCLLNNFYPREAKVQWKVDNALQSGNSQESVTEQDSKDSTYSLSSTLTLSKADYEKHKVYACEVTHQGLSSPVTKSFNRGEC | 2.1 | 3.5 |
| M103205H795-MY524/M103202L889-SK1 (antibody, human IgG1, kappa, Substitutions introduced into M103205H795-SG1, expressed with M103202L889-SK1 as light chain; EU numbering) heavy: QVTLKESGPVLVKPTETLTLTCTVSGIDLSHDDISWVRQAPGKGLEWVGIISYAGSTYYASWAKGRLTISKDTSKNQVVLTMTNMDPVDTATYYCARGVPAYSHGGDLWGQGTLVTVSSASTKGPSVFPLAPSSKSTSGGTAALGCLVKDYFPEPVTVSWNSGALTSGVHTFPAVLQSSGLYSLSSVVTVPSSSLGTQTYICNVNHKPSNTKVDKKVEPKSCDKTHTCPPCPGPELLTGPSVFLFPPKPKDTLMISRTPEVTCVVVDVSDEDPEVKFNWYVDGVEVHNAKTKPREELYNSTYRVVSVLTVLHQDWLNGKEYKCKVSNKALPKPIEKTISKAKGQPREPQVYTLPPSREEMTKNQVSLTCLVKGFYPSDIAVEWESNGQPENNYKTTPPVLDSDGSFFLYSKLTVDKSRWQQGNVFSCSVMHEALHNHYTQKSLSLSP light: DIVMTQSPATLSLSPGERATLSCTSSQSVYHANWLSWFQQKPGQPPKLLIYWASTLAYGVPSRFSGSGSGTDFTLTISSLQPEDAATYYCAGGYGGGRYAFGQGTKVEIKRTVAAPSVFIFPPSDEQLKSGTASVVCLLNNFYPREAKVQWKVDNALQSGNSQESVTEQDSKDSTYSLSSTLTLSKADYEKHKVYACEVTHQGLSSPVTKSFNRGEC | 2.7 | 4.5 |
| M103205H795-MY527/M103202L889-SK1 (antibody, human IgG1, kappa, Substitutions introduced into M103205H795-SG1, expressed with M103202L889-SK1 as light chain; EU numbering) heavy: QVTLKESGPVLVKPTETLTLTCTVSGIDLSHDDISWVRQAPGKGLEWVGIISYAGSTYYASWAKGRLTISKDTSKNQVVLTMTNMDPVDTATYYCARGVPAYSHGGDLWGQGTLVTVSSASTKGPSVFPLAPSSKSTSGGTAALGCLVKDYFPEPVTVSWNSGALTSGVHTFPAVLQSSGLYSLSSVVTVPSSSLGTQTYICNVNHKPSNTKVDKKVEPKSCDKTHTCPPCPTPELLTGPSVFLFPPKPKDTLMISRTPEVTCVVVDVSDEDPEVKFNWYVDGVEVHNAKTKPREELYNSTYRVVSVLTVLHQDWLNGKEYKCKVSNKALPKPIEKTISKAKGQPREPQVYTLPPSREEMTKNQVSLTCLVKGFYPSDIAVEWESNGQPENNYKTTPPVLDSDGSFFLYSKLTVDKSRWQQGNVFSCSVMHEALHNHYTQKSLSLSP light: DIVMTQSPATLSLSPGERATLSCTSSQSVYHANWLSWFQQKPGQPPKLLIYWASTLAYGVPSRFSGSGSGTDFTLTISSLQPEDAATYYCAGGYGGGRYAFGQGTKVEIKRTVAAPSVFIFPPSDEQLKSGTASVVCLLNNFYPREAKVQWKVDNALQSGNSQESVTEQDSKDSTYSLSSTLTLSKADYEKHKVYACEVTHQGLSSPVTKSFNRGEC | 3.4 | 4.3 |
| M103205H795-MY521/M103202L889-SK1 (antibody, human IgG1, kappa, Substitutions introduced into M103205H795-SG1, expressed with M103202L889-SK1 as light chain; EU numbering) heavy: QVTLKESGPVLVKPTETLTLTCTVSGIDLSHDDISWVRQAPGKGLEWVGIISYAGSTYYASWAKGRLTISKDTSKNQVVLTMTNMDPVDTATYYCARGVPAYSHGGDLWGQGTLVTVSSASTKGPSVFPLAPSSKSTSGGTAALGCLVKDYFPEPVTVSWNSGALTSGVHTFPAVLQSSGLYSLSSVVTVPSSSLGTQTYICNVNHKPSNTKVDKKVEPKSCDKTHTCPPCPADELLTGPSVFLFPPKPKDTLMISRTPEVTCVVVDVSDEDPEVKFNWYVDGVEVHNAKTKPREELYNSTYRVVSVLTVLHQDWLNGKEYKCKVSNKALPKPIEKTISKAKGQPREPQVYTLPPSREEMTKNQVSLTCLVKGFYPSDIAVEWESNGQPENNYKTTPPVLDSDGSFFLYSKLTVDKSRWQQGNVFSCSVMHEALHNHYTQKSLSLSP light: DIVMTQSPATLSLSPGERATLSCTSSQSVYHANWLSWFQQKPGQPPKLLIYWASTLAYGVPSRFSGSGSGTDFTLTISSLQPEDAATYYCAGGYGGGRYAFGQGTKVEIKRTVAAPSVFIFPPSDEQLKSGTASVVCLLNNFYPREAKVQWKVDNALQSGNSQESVTEQDSKDSTYSLSSTLTLSKADYEKHKVYACEVTHQGLSSPVTKSFNRGEC | 4.4 | 5.2 |

Binders with a lower Kd [1], results first:

| Kd [1] [µM] | Kd [2] [µM] | Binder |
| --- | --- | --- |
| 1.3 | 4.3 | M103205H795-MY526/M103202L889-SK1 (antibody, human IgG1, kappa, Substitutions introduced into M103205H795-SG1, expressed with M103202L889-SK1 as light chain; EU numbering) heavy: QVTLKESGPVLVKPTETLTLTCTVSGIDLSHDDISWVRQAPGKGLEWVGIISYAGSTYYASWAKGRLTISKDTSKNQVVLTMTNMDPVDTATYYCARGVPAYSHGGDLWGQGTLVTVSSASTKGPSVFPLAPSSKSTSGGTAALGCLVKDYFPEPVTVSWNSGALTSGVHTFPAVLQSSGLYSLSSVVTVPSSSLGTQTYICNVNHKPSNTKVDKKVEPKSCDKTHTCPPCPTPELLTGPVVFLFPPKPKDTLMISRTPEVTCVVVDVSDEDPEVKFNWYVDGVEVHNAKTKPREELYNSTYRVVSVLTVLHQDWLNGKEYKCKVSNKALPKPIEKTISKAKGQPREPQVYTLPPSREEMTKNQVSLTCLVKGFYPSDIAVEWESNGQPENNYKTTPPVLDSDGSFFLYSKLTVDKSRWQQGNVFSCSVMHEALHNHYTQKSLSLSP light: DIVMTQSPATLSLSPGERATLSCTSSQSVYHANWLSWFQQKPGQPPKLLIYWASTLAYGVPSRFSGSGSGTDFTLTISSLQPEDAATYYCAGGYGGGRYAFGQGTKVEIKRTVAAPSVFIFPPSDEQLKSGTASVVCLLNNFYPREAKVQWKVDNALQSGNSQESVTEQDSKDSTYSLSSTLTLSKADYEKHKVYACEVTHQGLSSPVTKSFNRGEC |
| 1.1 | 5.5 | M103205H795-MY523/M103202L889-SK1 (antibody, human IgG1, kappa, Substitutions introduced into M103205H795-SG1, expressed with M103202L889-SK1 as light chain; EU numbering) heavy: QVTLKESGPVLVKPTETLTLTCTVSGIDLSHDDISWVRQAPGKGLEWVGIISYAGSTYYASWAKGRLTISKDTSKNQVVLTMTNMDPVDTATYYCARGVPAYSHGGDLWGQGTLVTVSSASTKGPSVFPLAPSSKSTSGGTAALGCLVKDYFPEPVTVSWNSGALTSGVHTFPAVLQSSGLYSLSSVVTVPSSSLGTQTYICNVNHKPSNTKVDKKVEPKSCDKTHTCPPCPGPELLTGPVVFLFPPKPKDTLMISRTPEVTCVVVDVSDEDPEVKFNWYVDGVEVHNAKTKPREELYNSTYRVVSVLTVLHQDWLNGKEYKCKVSNKALPKPIEKTISKAKGQPREPQVYTLPPSREEMTKNQVSLTCLVKGFYPSDIAVEWESNGQPENNYKTTPPVLDSDGSFFLYSKLTVDKSRWQQGNVFSCSVMHEALHNHYTQKSLSLSP light: DIVMTQSPATLSLSPGERATLSCTSSQSVYHANWLSWFQQKPGQPPKLLIYWASTLAYGVPSRFSGSGSGTDFTLTISSLQPEDAATYYCAGGYGGGRYAFGQGTKVEIKRTVAAPSVFIFPPSDEQLKSGTASVVCLLNNFYPREAKVQWKVDNALQSGNSQESVTEQDSKDSTYSLSSTLTLSKADYEKHKVYACEVTHQGLSSPVTKSFNRGEC |
| 1.1 | 4.3 | M103205H795-MY525/M103202L889-SK1 (antibody, human IgG1, kappa, Substitutions introduced into M103205H795-SG1, expressed with M103202L889-SK1 as light chain; EU numbering) heavy: QVTLKESGPVLVKPTETLTLTCTVSGIDLSHDDISWVRQAPGKGLEWVGIISYAGSTYYASWAKGRLTISKDTSKNQVVLTMTNMDPVDTATYYCARGVPAYSHGGDLWGQGTLVTVSSASTKGPSVFPLAPSSKSTSGGTAALGCLVKDYFPEPVTVSWNSGALTSGVHTFPAVLQSSGLYSLSSVVTVPSSSLGTQTYICNVNHKPSNTKVDKKVEPKSCDKTHTCPPCPTPELLTGPVVFLFPPKPKDTLMISRTPEVTCVVVDVSDEDPEVKFNWYVDGVEVHNAKTKPREEQYNSTYRVVSVLTVLHQDWLNGKEYKCKVSNKALPKPIEKTISKAKGQPREPQVYTLPPSREEMTKNQVSLTCLVKGFYPSDIAVEWESNGQPENNYKTTPPVLDSDGSFFLYSKLTVDKSRWQQGNVFSCSVMHEALHNHYTQKSLSLSP light: DIVMTQSPATLSLSPGERATLSCTSSQSVYHANWLSWFQQKPGQPPKLLIYWASTLAYGVPSRFSGSGSGTDFTLTISSLQPEDAATYYCAGGYGGGRYAFGQGTKVEIKRTVAAPSVFIFPPSDEQLKSGTASVVCLLNNFYPREAKVQWKVDNALQSGNSQESVTEQDSKDSTYSLSSTLTLSKADYEKHKVYACEVTHQGLSSPVTKSFNRGEC |
| 0.93 | 5.7 | M103205H795-MY522/M103202L889-SK1 (antibody, human IgG1, kappa, Substitutions introduced into M103205H795-SG1, expressed with M103202L889-SK1 as light chain; EU numbering) heavy: QVTLKESGPVLVKPTETLTLTCTVSGIDLSHDDISWVRQAPGKGLEWVGIISYAGSTYYASWAKGRLTISKDTSKNQVVLTMTNMDPVDTATYYCARGVPAYSHGGDLWGQGTLVTVSSASTKGPSVFPLAPSSKSTSGGTAALGCLVKDYFPEPVTVSWNSGALTSGVHTFPAVLQSSGLYSLSSVVTVPSSSLGTQTYICNVNHKPSNTKVDKKVEPKSCDKTHTCPPCPGPELLTGPVVFLFPPKPKDTLMISRTPEVTCVVVDVSDEDPEVKFNWYVDGVEVHNAKTKPREEQYNSTYRVVSVLTVLHQDWLNGKEYKCKVSNKALPKPIEKTISKAKGQPREPQVYTLPPSREEMTKNQVSLTCLVKGFYPSDIAVEWESNGQPENNYKTTPPVLDSDGSFFLYSKLTVDKSRWQQGNVFSCSVMHEALHNHYTQKSLSLSP light: DIVMTQSPATLSLSPGERATLSCTSSQSVYHANWLSWFQQKPGQPPKLLIYWASTLAYGVPSRFSGSGSGTDFTLTISSLQPEDAATYYCAGGYGGGRYAFGQGTKVEIKRTVAAPSVFIFPPSDEQLKSGTASVVCLLNNFYPREAKVQWKVDNALQSGNSQESVTEQDSKDSTYSLSSTLTLSKADYEKHKVYACEVTHQGLSSPVTKSFNRGEC |
